# Experimental data reported in IntAct's records for PubMed 19559761.
# Molecular target: ef1a2_human EEF1A2 (UniProt Q05639)
# Chain of UniProt Q05639 (Q05639 whole entry): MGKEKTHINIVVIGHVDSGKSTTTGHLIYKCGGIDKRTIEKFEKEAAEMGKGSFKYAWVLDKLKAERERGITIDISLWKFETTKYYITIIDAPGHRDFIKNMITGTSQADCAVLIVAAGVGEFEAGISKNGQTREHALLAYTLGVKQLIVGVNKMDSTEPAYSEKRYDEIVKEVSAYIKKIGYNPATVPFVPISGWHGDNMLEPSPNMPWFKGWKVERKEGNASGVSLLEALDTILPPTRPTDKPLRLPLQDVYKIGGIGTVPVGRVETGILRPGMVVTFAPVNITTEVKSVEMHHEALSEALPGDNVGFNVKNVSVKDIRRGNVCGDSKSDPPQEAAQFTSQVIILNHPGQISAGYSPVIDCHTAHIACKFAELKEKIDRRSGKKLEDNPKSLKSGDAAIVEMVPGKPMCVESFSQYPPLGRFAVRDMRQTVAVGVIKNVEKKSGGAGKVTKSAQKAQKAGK
substance,measurement,value
"Leucine-rich repeat serine/threonine-protein kinase 2 (Homo sapiens), Q5S007 G2019S",effect of a mutation on the interaction,increasing interaction
